According to patent publication US20240425571A1, “GLYCOPROTEIN A REPETITIONS PREDOMINANT (GARP)-BINDING ANTIBODIES AND USES THEREOF” (OHIO STATE INNOVATION FOUNDATION, priority 2021, published 2024):

Columns and labels:
antigen = molecular target: T1, antigen (Homo sapiens, UniProt Q14392); test: Label-free kinetic binding assay on Gator; settings: for Rmax / koff / kon: IgG 2 μg/ml on anti-human Fc probes, antigen 5 μg/ml
T1 sequence (Q14392 20-662): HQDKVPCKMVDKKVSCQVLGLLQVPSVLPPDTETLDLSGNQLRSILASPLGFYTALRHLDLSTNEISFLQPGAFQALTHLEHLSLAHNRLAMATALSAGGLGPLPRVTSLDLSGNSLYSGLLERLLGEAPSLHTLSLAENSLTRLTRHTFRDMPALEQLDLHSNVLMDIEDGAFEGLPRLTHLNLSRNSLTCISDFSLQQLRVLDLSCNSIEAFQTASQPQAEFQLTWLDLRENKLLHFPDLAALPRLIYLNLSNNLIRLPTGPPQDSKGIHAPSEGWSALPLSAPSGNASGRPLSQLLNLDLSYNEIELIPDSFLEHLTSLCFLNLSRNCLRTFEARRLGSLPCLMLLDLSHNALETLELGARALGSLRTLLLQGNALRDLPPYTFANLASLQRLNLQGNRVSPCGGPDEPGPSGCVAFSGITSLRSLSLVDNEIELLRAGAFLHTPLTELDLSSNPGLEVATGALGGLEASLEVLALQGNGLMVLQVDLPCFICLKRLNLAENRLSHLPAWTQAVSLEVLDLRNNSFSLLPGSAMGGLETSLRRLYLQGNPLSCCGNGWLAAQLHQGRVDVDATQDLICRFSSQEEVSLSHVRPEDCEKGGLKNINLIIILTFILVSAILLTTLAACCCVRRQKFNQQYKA
Protocol: Affinity measurement. Label-free kinetic binding assay was performed on Gator (similar to Octet).
Methods. Affinity was measured on Gator (ProbeLife, Palo Alto). In brief, the purified IgG sample was diluted in K buffer at 2 μg/ml, and the antigen was diluted at 5 μg/ml. The antibody-loaded anti-human Fc probes were dipped in antigen wells for 5 mins and then moved to K buffer wells for 5 mins. In the whole process, the sample plate was shaken at 1,000 rpm. The data analysis was carried out using Gator software (ProbeLife).

[1] = Reducing CE-SDS (heterogeneity); type: physicochemical; settings: Reducing-CE-SDS
Protocol: (§1) Analysis of the heterogeneity by Capillary Electrophoresis (CE). The sample was prepared in reducing and non-reducing labeling buffer before being submitted to the CE analysis. A summary of the Reducing-CE-SDS and Non-Reducing-CE-SDS results are shown in FIG. 13A/Table H and FIG. 13B/Table I, respectively: […]

[2] = Aggregation potential by DLS analysis; type: physicochemical; settings: for Peak 1 Mass / Peak 1 Mode Diameter / Peak 1 PDI / Peak 2 Mass: DLS at 25° C.
Protocol: Aggregation potential by DLS analysis. DLS was performed on UNcle system (Unchained Labs). DLS was measured at 25° C. Data was calculated and analyzed using UNcle Analysis Software. DLS: Dynamic light scattering PDI: Polydispersity index, PDI=(standard deviation/mean hydrodynamic radius).
Dynamic Light Scattering (DLS) is used to detect aggregation in the antibody sample. “Mode diameter” is protein particle diameter and “mass percentage” is the amount of each size fraction in percentage. “PDI” is Polydispersity Index; the higher this index, the more polydispersity in the sample is. […] Peak 1 is the major peak and represents the IgG monomer. The inventor takes “Peak 1 mass percentage” and “PDI” value into consideration in selecting a lead.

Baculovirus = Baculovirus (BV) ELISA for non-specific binding
Protocol: Baculovirus (BV) ELISA was employed as a preliminary assay to evaluate antibody's potential nonspecific binding risk.
In Baculovirus (BV) ELISA, the inventor used Rituxan Mab as reference. […] If a clone only has binding on BV, but not on 293 cells, it will be considered as having a low risk of non-specific binding.
Methods—Baculovirus ELISA. Plates are coated with 50 μl of 1:500 diluted Baculovirus sample in PBS in each well. Plates are kept at 4° C. for overnight. The plates are washed with 300 μL of wash buffer ×3 and 200 μl blocking buffer (1% BSA) is added at RT for 60 min. Plates are washed with 300 μl of wash buffer ×3 and 100 μl of diluted Abs are added at different concentrations/well, followed by RT incubation for 1 hr. Plates are washed with 300 μl of wash buffer ×6 and 100 μl of 1:5000 HRP conjugated second Ab in PBS is added followed by RT incubation for 1 hr. The plates are washed with 300 μl of wash buffer ×6. Developing buffer is added and the plate is read.

Ag(−) cell = test: FACS analysis with Ag(−) cell (non-specific binding); settings: 5 ug/ml
Protocol: Methods—FACS analysis. Cell preparation: Cell were harvested and washed with PBS+2% FBS for one time. Cell density was adjusted to 1.5E6/mL in PBS/2% FBS. Cell were added to 96 U-bottom well plates at 100 μL/well. Antibody samples preparation: Antibody in supernatant was adjusted to 10 μg/mL using PBS+2% FBS, with serial 5 times dilution performed to obtain 3 concentrations of antibody solution. The blank was PBS+2% FBS. Antibody solutions were placed into 96 U-bottom well plates at 100 μL/well in the same arranging pattern as the cell preparation. Incubation: The antibody samples (100 μl) were mixed with the cells (100 μl), and incubated at RT for 1 h, then centrifuged the plate for 3 min at 1000 rpm (swing bucket). The supernatant was pipetted and the cells were washed with PBS+2% FBS for one time. Incubation with the secondary antibody: Cy3-Conjugated AffiniPure Goat Anti-Human IgG was diluted 250× by PBS+2% FBS, and added to the 96 U-bottom well plate with 100 μl/well, then incubated at RT for 30 min. After that, the plate was centrifuged at 1000 rpm for 3 min and the supernatant was pipetted out. The cell was washed with PBS+2% FBS twice. Cells were re-suspended in 200 μl PBS+2% FBS and analyzed on FACS. The MFI of total live cells were used as binding signal.
Methods—heat treatment. Culture supernatant was serial diluted to the indicated concentration of IgG with cell media and heated at 70° C. for 5 mins on a PCR machine, then quickly cooled down to room temperature.

[3] = Thermostability by DSF/SLS (UNcle); type: physicochemical; settings: for SLS Tagg 266: SLS at 266 nm; for SLS Tagg 473: SLS at 473 nm; for DSF TM2 / DSF Tm1: ramp 1° C./min, 20° C. to 95° C.
Protocol: Developability Analysis for PIIO-1 humanization leads. Antibodies were analyzed for thermostability by DSF/SLS. Samples were submitted to the UNcle system (Unchained Labs) for analysis. A temperature ramp of 1° C./min was performed with monitoring from 20° C. to 95° C. for DSF and SLS. UNcle measures SLS at 266 nm and 473 nm. Tm and Tagg were calculated and analyzed by using the UNcle Analysis Software. DSF: Differential scanning fluorimetry; SLS: Static light scattering; Tm: Melting temperature; Tagg 266: Thermal aggregation when SLS at 266 nm; Tagg 473: Thermal aggregation when SLS at 473 nm. A summary is shown below in Table F:
IgG is a multi-domain structure and each domain has its own melting Temperature (Tm). […] Fabs have Tm in a wide range, generally about 50-85° C., due to large sequence variation. Therefore, the Tm values measured by various analytical techniques are usually “apparent” transition temperatures rather than the real Tm for each domain. In the case of whole IgG, there are often 2-3 Tm values in DSF measurement, presenting some challenge in determining which Tm represents which domain.
Tagg is the temperature at which SLS starts to detect aggregation particles. Tagg266 measures SLS at 266 nm, which is more sensitive and suitable to detect smaller aggregation particles. Tagg473 measures SLS at 473 nm and is better to detect larger particles.

[4] = Non-reducing CE-SDS (heterogeneity); type: physicochemical
Protocol: as §1

B1: H2L1: humanized PIIO-1 antibody, VH SEQ ID NO: 21 and VL SEQ ID NO: 23 (antibody, V domains shown)
VH: QVQLQESGPGLVKPSQTLSLTCTVSGYSITSDYAWNWIRQFPGNKLEWMGYISYSGSTSYTPSLKSRITISRDTSKNHFFLKLSSVTAADTAVYYCAKSGGDYYGSSSYWYFDVWGQGTMVTVSS
VL: DIVLTQSPSSLAVSLGERATMNCKSSQSLLNSRSQKNYLAWYQQKPGQPPKLLIYGASTRGSGVPDRFSGSGSGTDFTLTISSLQAEDVAVYYCQNDHSYPFTFGQGTKLEIKR
- KD value compared with the chimeric (antigen): same KD value to the chimeric
- Rmax (antigen): 0.756
- koff (antigen): 0.000806
- kon (antigen): 1.00E+05
- OTHER (%) [1]: 2.7%
- PK#1 (%) [1]: 21.7%
- PK#2 (%) [1]: 6.9%
- PK#3 (%) [1]: 68.7%
- comparison of humanized antibodies by Table G [2]: superior to huPIIO-1VH1VL1
- Peak 1 Mass [2]: 100%
- Peak 1 Mode Diameter [2]: 9.68 nm
- Peak 1 PDI [2]: 0.141
- Peak 2 Mass [2]: 0%
- BV ELISA with purified IgG, raw BV binding data (Baculovirus; Ab. Conc. 0.15625 ug/ml): 14.5
- BV ELISA with purified IgG, raw BV binding data (Baculovirus; Ab. Conc. 0.3125 ug/ml): 14.6
- BV ELISA with purified IgG, raw BV binding data (Baculovirus; Ab. Conc. 0.625 ug/ml): 15.6
- BV ELISA with purified IgG, raw BV binding data (Baculovirus; Ab. Conc. 1.25 ug/ml): 18.3
- BV ELISA with purified IgG, raw BV binding data (Baculovirus; Ab. Conc. 2.5 ug/ml): 17.8
- BV ELISA with purified IgG, raw BV binding data (Baculovirus; Ab. Conc. 5 ug/ml): 30.8
- BV ELISA with purified IgG, raw BV binding data (Baculovirus; Ab. Conc. 10 ug/ml): 82.7
- BV ELISA with purified IgG, raw BV binding data (Baculovirus; Ab. Conc. 20 ug/ml): 161.0
- FACS with Ag(−) cell (MFI) (Ag(−) cell; Heating): 3.29
- FACS with Ag(−) cell (MFI) (Ag(−) cell; Non-Heating): 3.23
- SLS Tagg 266 [3]: 73.7 °C
- SLS Tagg 473 [3]: 74.7 °C
- DSF TM2 [3]: 83.2 °C
- DSF Tm1 [3]: 69.9 °C
- Main Peak (%) [4]: 89.1%
- OTHER (%) [4]: 10.8%

B2: H1L1: humanized PIIO-1 antibody, VH SEQ ID NO: 20 and VL SEQ ID NO: 23 (antibody, V domains shown)
VH: QVQLQESGPGLVKPSQTLSLTCTVSGYSITSDYAWNWIRQFPGNKLEWMGYISYSGSTSYTPSLKSRVTISRDTSKNHFSLKLSSVTAADTAVYYCAKSGGDYYGSSSYWYFDVWGQGTMVTVSS
VL: DIVLTQSPSSLAVSLGERATMNCKSSQSLLNSRSQKNYLAWYQQKPGQPPKLLIYGASTRGSGVPDRFSGSGSGTDFTLTISSLQAEDVAVYYCQNDHSYPFTFGQGTKLEIKR
- KD value compared with the chimeric (antigen): same KD value to the chimeric
- Rmax (antigen): 0.791
- koff (antigen): 0.00081
- kon (antigen): 1.01E+05
- OTHER (%) [1]: 0.9%
- PK#1 (%) [1]: 5.6%
- PK#2 (%) [1]: 23.2%
- PK#3 (%) [1]: 70.4%
- PDI compared with WT [2]: slight worse than WT
- Peak 1 Mass [2]: 99.95%
- Peak 1 Mode Diameter [2]: 9.68 nm
- Peak 1 PDI [2]: 1.228
- Peak 2 Mass [2]: 0%
- BV ELISA with purified IgG, raw BV binding data (Baculovirus; Ab. Conc. 0.15625 ug/ml): 15.0
- BV ELISA with purified IgG, raw BV binding data (Baculovirus; Ab. Conc. 0.3125 ug/ml): 16.2
- BV ELISA with purified IgG, raw BV binding data (Baculovirus; Ab. Conc. 0.625 ug/ml): 14.7
- BV ELISA with purified IgG, raw BV binding data (Baculovirus; Ab. Conc. 1.25 ug/ml): 16.0
- BV ELISA with purified IgG, raw BV binding data (Baculovirus; Ab. Conc. 2.5 ug/ml): 18.3
- BV ELISA with purified IgG, raw BV binding data (Baculovirus; Ab. Conc. 5 ug/ml): 24.9
- BV ELISA with purified IgG, raw BV binding data (Baculovirus; Ab. Conc. 10 ug/ml): 52.7
- BV ELISA with purified IgG, raw BV binding data (Baculovirus; Ab. Conc. 20 ug/ml): 157.2
- FACS with Ag(−) cell (MFI) (Ag(−) cell; Heating): 3.36
- FACS with Ag(−) cell (MFI) (Ag(−) cell; Non-Heating): 3.31
- SLS Tagg 266 [3]: 74.2 °C
- SLS Tagg 473 [3]: 74.9 °C
- DSF TM2 [3]: 83.7 °C
- DSF Tm1 [3]: 70.2 °C
- Main Peak (%) [4]: 97.6%
- OTHER (%) [4]: 2.4%
